# In PMC11089518, “Development of Prolinol Containing Inhibitors of Hypoxanthine–Guanine–Xanthine Phosphoribosyltransferase: Rational Structure-Based Drug Design” (Journal of Medicinal Chemistry, 2024):
# B1: human hypoxanthine-guanine phosphoribosyltransferase (human HGPRT) (enzyme)
# chain: MATRSPGVVISDDEPGYDLDLFCIPNHYAEDLERVFIPHGLIMDRTERLARDVMKEMGGHHIVALCVLKGGYKFFADLLDYIKALNRNSDRSIPMTVDFIRLKSYCNDQSTGDIKVIGGDDLSTLTGKNVLIVEDIIDTGKTMQTLLSLVRQYNPKMVKVASLLVKRTPRSVGYKPDFVGFEIPDKFVVGYALDYNEYFRDLNHVCVISETGKAKYKA
# notes: hypoxanthine-guanine phosphoribosyltransferase, human; source: expressed and purified to homogeneity as previously described
# B2: Trypanosoma brucei hypoxanthine-guanine phosphoribosyltransferase isoform 1 (TBrHGPRT1) (enzyme, UniProt Q07010 1-210, looked up)
# chain: MEPACKYDFATSVLFTEAELHTRMRGVAQRIADDYSNCNLKPLENPLVIVSVLKGSFVFTADMVRILGDFGVPTRVEFLRASSYGHDTKSCGRVDVKADGLCDIRGKHVLVLEDILDTALTLREVVDSLKKSEPASIKTLVAIDKPGGRKIPFTAEYVVADVPNVFVVGYGLDYDQSYREVRDVVILKPSVYETWGKELERRKAAGEAKR
# notes: hypoxanthine-guanine phosphoribosyltransferase isoform HGPRT1 (cytoplasmic) of Trypanosoma brucei; source: expressed and purified to homogeneity as previously described
# Experiments:
# [1] = target: the molecule itself; assay: crystal structure; human HGPRT (10 mg/mL, 0.4 mM) with inhibitor 1 (0.3 M calcium acetate, 20% PEG 3350) or 5 (0.3 M sodium acetate, 17.5% PEG 3350), hanging drop; oligomer as refined in the asymmetric unit
# [2] = target: the molecule itself; assay: crystal structure; TbrHGPRT1 (8 mg/mL, 0.3 mM) with inhibitor 4 or 5, 0.2 M MgCl2, 0.1 M Bis-Tris pH 5.0, 20% PEG 3350, hanging drop; oligomer as refined in the asymmetric unit
Protein,stoichiometry N [1],stoichiometry N [2]
B1,4,–
B2,–,2
